Test results taken from publication PMC12049551, “Labelizer: systematic selection of protein residues for covalent fluorophore labeling” (Nature Communications, 2025).
Read-outs that look alike come from different tables or passages of the source.

Experiments:
[1] = Isothermal titration calorimetry (ITC) of PBP variants with inorganic phosphate; type: binding, E. coli; details: 25 °C, unlabeled protein, mean ± SD from n = 2 protein preparations
Protocol: Protein from a diluted solution was concentrated to ~ 30 µM using a Viva Spin 6 concentrator with a 10 kDa MWCO. The filtrate was used to prepare the phosphate solution at 450 µM. The reaction cell was filled with the protein solution and titrated in 19 steps of 2 µl each of phosphate solution in 160 s intervals. A baseline control was obtained from measurements made with protein-free filtrate in the reaction cell, and this baseline was subtracted from the experimental thermograms. Data were fitted to a single binding site model using the Setup MicroCal PEAQ-ITC Analysis Software provided by the manufacturer.

[2] = set-up: method as in PMID 26199994; details: cited from earlier work

Row | Molecule | Kd [1] [µM] | reduction of affinity for inorganic phosphate compared to wild-type ([2]; I76G mutation) [fold] | Kd ([2]; wild-type affinity for inorganic phosphate) [µM]
1 | PBP (S3C-I76G-P86C): double-cysteine variant of E. coli phosphate binding protein PBP with additional I76G mutation (protein, UniProt P0AG82 26-346, looked up, variant S3C I76G P86C) Phosphate-binding protein PstS: EACLTGAGATFPAPVYAKWADTYQKETGNKVNYQGIGSSGGVKQIIANTVDFGASDAPLSDEKLAQEGLFQFPTVGGGVVLAVNICGLKSGELVLDGKTLGDIYLGKIKKWDDEAIAKLNPGLKLPSQNIAVVRRADGSGTSFVFTSYLAKVNEEWKNNVGTGSTVKWPIGLGGKGNDGIAAFVQRLPGAIGYVEYAYAKQNNLAYTKLISADGKPVSPTEENFANAAKGADWSKTFAQDLTNQKGEDAWPITSTTFILIHKDQKKPEQGTEVLKFFDWAYKTGAKQANDLDYASLPDSVVEQVRAAWKTNIKDSSGKPLY | 10 ± 5 |  | 
2 | PBP (I76G): cysteine-less PBP variant with only the I76G mutation (protein, UniProt P0AG82 26-346, looked up, variant I76G) Phosphate-binding protein PstS: EASLTGAGATFPAPVYAKWADTYQKETGNKVNYQGIGSSGGVKQIIANTVDFGASDAPLSDEKLAQEGLFQFPTVGGGVVLAVNIPGLKSGELVLDGKTLGDIYLGKIKKWDDEAIAKLNPGLKLPSQNIAVVRRADGSGTSFVFTSYLAKVNEEWKNNVGTGSTVKWPIGLGGKGNDGIAAFVQRLPGAIGYVEYAYAKQNNLAYTKLISADGKPVSPTEENFANAAKGADWSKTFAQDLTNQKGEDAWPITSTTFILIHKDQKKPEQGTEVLKFFDWAYKTGAKQANDLDYASLPDSVVEQVRAAWKTNIKDSSGKPLY | 19 ± 6 | ~200 | 
3 | wild-type: wild-type E. coli phosphate binding protein PBP (phoS gene) (protein, UniProt P0AG82 26-346, looked up) Phosphate-binding protein PstS: EASLTGAGATFPAPVYAKWADTYQKETGNKVNYQGIGSSGGVKQIIANTVDFGASDAPLSDEKLAQEGLFQFPTVIGGVVLAVNIPGLKSGELVLDGKTLGDIYLGKIKKWDDEAIAKLNPGLKLPSQNIAVVRRADGSGTSFVFTSYLAKVNEEWKNNVGTGSTVKWPIGLGGKGNDGIAAFVQRLPGAIGYVEYAYAKQNNLAYTKLISADGKPVSPTEENFANAAKGADWSKTFAQDLTNQKGEDAWPITSTTFILIHKDQKKPEQGTEVLKFFDWAYKTGAKQANDLDYASLPDSVVEQVRAAWKTNIKDSSGKPLY |  |  | 0.07
